Experiments:
[1] = target: tissue factor (TF) antigen (UniProt P13726); assay: SPR, Fab captured on anti-penta His, TF injected
[2] = target: tissue factor (TF) antigen (UniProt P13726); assay: SPR (ProteOn), against wild-type D3H44 Fab
[3] = target: tissue factor (TF) antigen (UniProt P13726); assay: SPR (ProteOn), Fab captured by anti-penta-His, TF as analyte, 1:1 fit
[4] = target: tissue factor (TF) antigen (UniProt P13726); assay: SPR KD against wild-type D3H44 Fab (reference KD 0.157 nM)
[5] = target: tissue factor (TF) antigen (UniProt P13726); assay: SPR (ProteOn), Fab captured on anti-penta-His, TF analyte, 1:1 fit

Sequence of tissue factor (TF) antigen (P13726 33-251 limits assumed): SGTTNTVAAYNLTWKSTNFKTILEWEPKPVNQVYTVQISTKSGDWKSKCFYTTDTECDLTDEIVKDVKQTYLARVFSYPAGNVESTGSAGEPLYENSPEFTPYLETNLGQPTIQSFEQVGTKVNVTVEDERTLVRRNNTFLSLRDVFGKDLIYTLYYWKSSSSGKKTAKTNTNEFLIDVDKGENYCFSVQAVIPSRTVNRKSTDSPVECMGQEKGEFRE

Change in KD with respect to wild type (-(log(KD design) - log(KD wt))) [4]	Kd [5]	Substance	further results
-0.01	0.16 nM	D3H44 Fab heterodimer, H: A139C_L143E_K145T_Q179E, L: F116C_Q124R_T178R (H1L1 Fab of LCCA set 9049)	–
-0.09	0.19 nM	D3H44 Fab heterodimer, H: L124A_Q179K, L: Q124E_V133W_S176T_T178L_T180E (H1L1 Fab of LCCA set 9099)	–
-0.21	0.26 nM	D3H44 Fab heterodimer, H: L124W_L143F_K145T_Q179E, L: S131K_V133A_S176T_T178L (H1L1 Fab of LCCA sets 9571 and 9572)	–
-0.31	0.32 nM	D3H44 Fab heterodimer, H: Q179K, L: Q124E_Q160E_T180E (H1L1 Fab of LCCA set 9759)	–
0.1	0.13 nM	D3H44 Fab heterodimer, H: Q179K, L: Q124E_T178E_T180E (H1L1 Fab of LCCA set 9786)	–
0.16	0.11 nM	D3H44 Fab heterodimer, H: Q179K, L: Q124E_T180E (H1L1 Fab of LCCA sets 9787, 9792 and 9794)	–
0.16	0.11 nM	D3H44 Fab heterodimer, H: Q179R, L: Q124E_Q160E_T178E (H1L1 Fab of LCCA set 9802)	–
-0.01	0.16 nM	D3H44 Fab heterodimer, H: Q179R, L: Q124E_T178E_T180E (H1L1 Fab of LCCA set 9812)	–
0.02	0.15 nM	D3H44 Fab heterodimer, H: S186K, L: Q124E_T178E_T180E (H1L1 Fab of LCCA set 9852)	–
0.49	0.05 nM	D3H44 Fab heterodimer, H: S186R, L: Q124E_T178E_T180E (H1L1 Fab of LCCA set 9890)	–

More lines, now with the values behind:

Substance	Change in KD with respect to wild type (-(log(KD design) - log(KD wt))) [4]	Kd [5]	further results
D3H44 Fab heterodimer H L124E_L143E_K145M / L Q124K_V133G_S176R_T178R (H1L1 Fab of LCCA Set # 9270)	–	–	Change in KD with respect to wild type (-(log(KD design) - log(KD wt))) [1]: -0.29; Kd [1]: 0.31 nM
D3H44 Fab heterodimer H L124E_L143E_K145T / L Q124K_V133G_Q160K_S176R (H1L1 Fab of LCCA Set # 9275)	–	–	Change in KD with respect to wild type (-(log(KD design) - log(KD wt))) [1]: -0.12; Kd [1]: 0.2 nM
D3H44 Fab heterodimer H L124R_D146N_Q179K / L Q124E_V133G_S176D_T178E_T180E (H1L1 Fab of LCCA Set # 9350, 9351)	–	–	Change in KD with respect to wild type (-(log(KD design) - log(KD wt))) [1]: -0.1; Kd [1]: 0.2 nM
D3H44 Fab heterodimer H L124R_D146N_Q179K / L V133G_S176D_T178E_T180E (H1L1 Fab of LCCA Set # 9359)	–	–	Change in KD with respect to wild type (-(log(KD design) - log(KD wt))) [1]: -0.01; Kd [1]: 0.16 nM
D3H44 Fab heterodimer H L124R_Q179K / L Q124E_V133G_S176D_T178E_T180E (H1L1 Fab of LCCA Set # 9384, 9388)	–	–	Change in KD with respect to wild type (-(log(KD design) - log(KD wt))) [1]: -0.15; Kd [1]: 0.22 nM
D3H44 Fab heterodimer H L124R_Q179K / L V133G_S176D_T178E_T180E (H1L1 Fab of LCCA Set # 9426)	–	–	Change in KD with respect to wild type (-(log(KD design) - log(KD wt))) [1]: -0.16; Kd [1]: 0.23 nM
D3H44 Fab heterodimer H L124R_S186K / L Q124E_V133G_S176D_T178D_T180E (H1L1 Fab of LCCA Set # 9461)	–	–	Change in KD with respect to wild type (-(log(KD design) - log(KD wt))) [1]: -0.23; Kd [1]: 0.26 nM
D3H44 Fab heterodimer H L124R_S186K / L V133G_S176D_T178D_T180E (H1L1 Fab of LCCA Set # 9473)	–	–	Change in KD with respect to wild type (-(log(KD design) - log(KD wt))) [1]: -0.07; Kd [1]: 0.18 nM
D3H44 Fab heterodimer H L124R_S186K / L V133G_S176D_T178E_T180E (H1L1 Fab of LCCA Set # 9489)	–	–	Change in KD with respect to wild type (-(log(KD design) - log(KD wt))) [1]: -0.17; Kd [1]: 0.23 nM
D3H44 Fab heterodimer, H1L1 of LCCA set 9444 (H: L124R_Q179K; L: V133G_S176D_T180E)	–	–	Change in KD with respect to wild type (-(log(KD design) - log(KD wt))) [2]: -0.26; Kd [3]: 0.28 nM
D3H44 Fab heterodimer, H1L1 of LCCA set 9575 (H: L143D_K145T_Q179E; L: T178R)	–	–	Change in KD with respect to wild type (-(log(KD design) - log(KD wt))) [2]: -0.25; Kd [3]: 0.28 nM
D3H44 Fab heterodimer, H1L1 of LCCA set 9588 (H: L143E_K145T; L: Q124R)	–	–	Change in KD with respect to wild type (-(log(KD design) - log(KD wt))) [2]: -0.25; Kd [3]: 0.28 nM
D3H44 Fab heterodimer, H1L1 of LCCA set 9620 (H: L143E_K145T_Q179D; L: Q124R_Q160K_T178R)	–	–	Change in KD with respect to wild type (-(log(KD design) - log(KD wt))) [2]: 0.39; Kd [3]: 0.06 nM
D3H44 Fab heterodimer, H1L1 of LCCA set 9632 (H: L143E_K145T_Q179D; L: Q124R_T178R)	–	–	Change in KD with respect to wild type (-(log(KD design) - log(KD wt))) [2]: 0.04; Kd [3]: 0.14 nM
D3H44 Fab heterodimer, H1L1 of LCCA set 9638 (H: L143E_K145T_Q179D; L: T178R)	–	–	Change in KD with respect to wild type (-(log(KD design) - log(KD wt))) [2]: 0.17; Kd [3]: 0.11 nM
D3H44 Fab heterodimer, H1L1 of LCCA set 9684 (H: L143E_K145T_Q179E; L: T178R)	–	–	Change in KD with respect to wild type (-(log(KD design) - log(KD wt))) [2]: -0.28; Kd [3]: 0.3 nM
D3H44 Fab heterodimer, H1L1 of LCCA set 9688 (H: L143E_K145T_Q179E_S188L; L: Q124R_T178R)	–	–	Change in KD with respect to wild type (-(log(KD design) - log(KD wt))) [2]: -0.34; Kd [3]: 0.34 nM
D3H44 Fab heterodimer, H1L1 of LCCA set 9741 (H: L143R; L: Q124E_V133E_Q160F)	–	–	Change in KD with respect to wild type (-(log(KD design) - log(KD wt))) [2]: 0.34; Kd [3]: 0.07 nM
D3H44 Fab heterodimer, H: L124A_L143F_Q179K, L: Q124E_V133W_S176T_T178E_T180E (H1L1 Fab of LCCA set 9092)	-0.02	0.16 nM	–

Substance	Change in KD with respect to wild type (-(log(KD design) - log(KD wt))) [4]	Kd [5]	further results
D3H44 Fab heterodimer, H: L124A_L143F_Q179K, L: Q124E_V133W_S176T_T178L_T180E (H1L1 Fab of LCCA set 9096)	-0.04	0.17 nM	–
D3H44 Fab heterodimer, H: L124A_Q179K, L: Q124E_V133W_S176T_T178E_T180E (H1L1 Fab of LCCA set 9098)	-0.03	0.17 nM	–
D3H44 Fab heterodimer, H: L143E_K145T_Q179D, L: Q124R_T178R (H1L1 Fab of LCCA set 9632)	0.04	0.14 nM	–
D3H44 Fab heterodimer, H: L143E_K145T_Q179E, L: Q124K_T178R (H1L1 Fab of LCCA set 9648)	0.05	0.14 nM	–
D3H44 Fab heterodimer, H: L143E_K145T_Q179E, L: Q124R_Q160K_T178R (H1L1 Fab of LCCA set 9654)	0.02	0.15 nM	–
D3H44 Fab heterodimer, H: L143E_K145T_Q179E, L: Q124R_T178K (H1L1 Fab of LCCA set 9660)	-0.08	0.19 nM	–
D3H44 Fab heterodimer, H: L143K, L: Q124E_V133D (H1L1 Fab of LCCA set 9731)	-0.26	0.28 nM	–
D3H44 Fab heterodimer, H: L143R, L: Q124E_V133E (H1L1 Fab of LCCA set 9740)	-0.09	0.2 nM	–
D3H44 Fab heterodimer, H: Q179K, L: Q124E_Q160E_T178E (H1L1 Fab of LCCA set 9758)	-0.27	0.29 nM	–
D3H44 Fab heterodimer, H: Q179K, L: Q124E_T178E (H1L1 Fab of LCCA set 9784)	0.05	0.14 nM	–
D3H44 Fab heterodimer, H: Q179R, L: Q124E_T178E (H1L1 Fab of LCCA set 9810)	0.04	0.14 nM	–
D3H44 Fab heterodimer, H: S186K, L: Q124E_Q160E_T178E (H1L1 Fab of LCCA set 9830)	0.41	0.06 nM	–
D3H44 Fab heterodimer, H: S186K, L: Q124E_Q160E_T180E (H1L1 Fab of LCCA set 9838)	0.09	0.13 nM	–
D3H44 Fab heterodimer, H: S186K, L: Q124E_T178E (H1L1 Fab of LCCA set 9850)	0.01	0.15 nM	–
D3H44 Fab heterodimer, H: S186K, L: Q124E_T180E (H1L1 Fab of LCCA sets 9853 and 9858)	0.46	0.06 nM	–
D3H44 Fab heterodimer, H: S186R, L: Q124E_Q160E_T178E (H1L1 Fab of LCCA set 9868)	0.06	0.14 nM	–
D3H44 Fab heterodimer, H: S186R, L: Q124E_T178E (H1L1 Fab of LCCA set 9888)	0.06	0.14 nM	–
D3H44 Fab heterodimer, H: S186R, L: Q124E_T180E (H1L1 Fab of LCCA sets 9891, 9893, 9896 and 9898)	0.36	0.07 nM	–
